According to PMC7954794, “Protein context shapes the specificity of SH3 domain-mediated interactions in vivo” (Nature Communications, 2021):

B1: ABP1 001 P * (protein, UniProt P15891 2-592, looked up)
Actin-binding protein: ALEPIDYTTHSREIDAEYLKIVRGSDPDTTWLIISPNAKKEYEPESTGSSFHDFLQLFDETKVQYGLARVSPPGSDVEKIIIIGWCPDSAPLKTRASFAANFAAVANNLFKGYHVQVTARDEDDLDENELLMKISNAAGARYSIQTSSKQQGKASTPPVKKSFTPSKSPAPVSKKEPVKTPSPAPAAKISSRVNDNNDDDDWNEPELKERDFDQAPLKPNQSSYKPIGKIDLQKVIAEEKAKEDPRLVQKPTAAGSKIDPSSDIANLKNESKLKRDSEFNSFLGTTKPPSMTESSLKNDDDKVIKGFRNEKSPAQLWAERKAKQNSGNAETKAEAPKPEVPEDEPEGEPDVKDLKSKFEGLAASEKEEEEMENKFAPPPKKSEPTIISPKPFSKPQEPVKAEEAEQPKTDYKKIGNPLPGMHIEADNEEEPEENDDDWDDDEDEAAQPPLPSRNVASGAPVQKEEPEQEEIAPSLPSRNSIPAPKQEEAPEQAPEEEIEEEAEEAAPQLPSRSSAAPPPPPRRATPEKKPKENPWATAEYDYDAAEDNELTFVENDKIINIEFVDDDWWLGELEKDGSKGLFPSNYVSLGN
B2: ABP1 001 P E (protein, UniProt P15891 2-592, looked up)
Actin-binding protein: ALEPIDYTTHSREIDAEYLKIVRGSDPDTTWLIISPNAKKEYEPESTGSSFHDFLQLFDETKVQYGLARVSPPGSDVEKIIIIGWCPDSAPLKTRASFAANFAAVANNLFKGYHVQVTARDEDDLDENELLMKISNAAGARYSIQTSSKQQGKASTPPVKKSFTPSKSPAPVSKKEPVKTPSPAPAAKISSRVNDNNDDDDWNEPELKERDFDQAPLKPNQSSYKPIGKIDLQKVIAEEKAKEDPRLVQKPTAAGSKIDPSSDIANLKNESKLKRDSEFNSFLGTTKPPSMTESSLKNDDDKVIKGFRNEKSPAQLWAERKAKQNSGNAETKAEAPKPEVPEDEPEGEPDVKDLKSKFEGLAASEKEEEEMENKFAPPPKKSEPTIISPKPFSKPQEPVKAEEAEQPKTDYKKIGNPLPGMHIEADNEEEPEENDDDWDDDEDEAAQPPLPSRNVASGAPVQKEEPEQEEIAPSLPSRNSIPAPKQEEAPEQAPEEEIEEEAEEAAPQLPSRSSAAPPPPPRRATPEKKPKENPWATAEYDYDAAEDNELTFVENDKIINIEFVDDDWWLGELEKDGSKGLFPSNYVSLGN
B3: ABP1 001 P C (protein, UniProt P15891 2-592, looked up)
Actin-binding protein: ALEPIDYTTHSREIDAEYLKIVRGSDPDTTWLIISPNAKKEYEPESTGSSFHDFLQLFDETKVQYGLARVSPPGSDVEKIIIIGWCPDSAPLKTRASFAANFAAVANNLFKGYHVQVTARDEDDLDENELLMKISNAAGARYSIQTSSKQQGKASTPPVKKSFTPSKSPAPVSKKEPVKTPSPAPAAKISSRVNDNNDDDDWNEPELKERDFDQAPLKPNQSSYKPIGKIDLQKVIAEEKAKEDPRLVQKPTAAGSKIDPSSDIANLKNESKLKRDSEFNSFLGTTKPPSMTESSLKNDDDKVIKGFRNEKSPAQLWAERKAKQNSGNAETKAEAPKPEVPEDEPEGEPDVKDLKSKFEGLAASEKEEEEMENKFAPPPKKSEPTIISPKPFSKPQEPVKAEEAEQPKTDYKKIGNPLPGMHIEADNEEEPEENDDDWDDDEDEAAQPPLPSRNVASGAPVQKEEPEQEEIAPSLPSRNSIPAPKQEEAPEQAPEEEIEEEAEEAAPQLPSRSSAAPPPPPRRATPEKKPKENPWATAEYDYDAAEDNELTFVENDKIINIEFVDDDWWLGELEKDGSKGLFPSNYVSLGN

Test system: Hua2
Assay: Deep mutational scanning of Abp1 SH3, Abp1-Hua2 DHFR-PCA (DMS score)
Format: cell-based, Saccharomyces cerevisiae
Conditions: for ratio (log2 scale): HUA2_MTX2 (test) vs HUA2_S2 (reference); for ratio (log2 scale) / ratio (log2 scale) mean / frequency (reference condition) / frequency (test condition): amino acid mutation format; for ratio (log2 scale) / frequency (reference condition) / frequency (test condition): replicate 1, Fig. S3A-B; for ratio (log2 scale) mean: condition HUA2_MTX2; for ratio (log2 scale) mean / frequency (reference condition) mean / frequency (test condition) mean / frequency (log2 scale) (reference condition) mean / frequency (log2 scale) (test condition) mean: Fig. S3E; for frequency (reference condition): reference condition HUA2_S2; for frequency (reference condition) mean / frequency (log2 scale) (reference condition) mean: reference condition for HUA2_MTX2; for frequency (test condition) / frequency (test condition) mean / frequency (log2 scale) (test condition) mean: test condition HUA2_MTX2
Method: Single site mutation libraries were generated by a PCR-based saturation mutagenesis method[50] as described below. The mutagenesis was carried out on the pUC19 plasmid containing the SH3 domain sequence of ABP1 flanked by its homology arms subsequently used in the CRISPR mediated genomic re-integration. We used oligos containing degenerate nucleotides (NNN) to carry out the mutagenesis at each codon of the domain sequence. In the first step of the two-step PCR procedure (short PCR step), an amplicon was generated with an oligo containing the degenerate codon which is positioned within the domain sequence, and another oligo lying outside Abp1 sequence in the plasmid. Short PCR step was carried out with the following settings: 5 min at 95 °C, 35 cycles: 20 s at 98 °C, 15 s at 60 °C, 30 s at 72 °C, and a final extension of 1 min at 72 °C. The amplicon generated in this step was used as a mega primer in the second step (long PCR step) to amplify the whole plasmid. Long PCR step was carried out with the following settings: 5 min at 95 °C, 22 cycles: 20 s at 98 °C, 15 s at 68 °C, 3 min 30 s at 72 °C, and a final extension of 5 min at 72 °C. The long PCR product was digested for 2 h at 37 °C with DpnI. The digestion product was then transformed into E. coli MC1061 competent cells. In order to obtain most of the 64 possible codons, we recovered ~1000 colonies from each plate to retrieve the plasmid single mutant libraries. Saturation mutagenesis was carried out in a codon-position-wise manner. Mutants at each position were stored separately. Library quality control was assessed by amplifying the purified plasmid DNA preparations by PCR followed by Illumina sequencing as described below. The genomic insertion of the mutant libraries (one library per amino acid position) was performed by targeting the stuffer sequence in the ABP1 SH3-deleted strain as described in the strain construction section. ABP1 SH3-deleted yeast competent cells were co-transformed with pCAS containing the stuffer-specific gRNA and PCR amplified ABP1 SH3 single position mutated libraries from the pUC19 preparations. As for the library generation, ~1000 colonies from each plate were retrieved. Glycerol stocks of yeast cells were kept for each position (58 different stocks corresponding to the 58 amino acid positions of Abp1 SH3). The stocks were also validated by Illumina sequencing (see below).
Liquid DHFR-PCA experiments were performed following the generation of the ABP1 SH3 single position mutated yeast strains and were performed in biological independent duplicates. An overnight culture was started in YPD + NAT by adding the same number of cells from each yeast mutant strain (master pool). Then, the master pool and Hua2-DHFR F[3] or Lsb3-DHFR F[3] preys strains were mixed in YPD (2:1) for mating and incubated for 8 h at 30 °C. Diploid cells were selected the first time by transferring the mixture in a YPD + NAT + HPH (OD 0.5) culture for 16 h at 30 °C. The next day, the first diploid selection was transferred in SC complete pH 6.0 + NAT + HPH at 0.5 OD and the culture was grown for 24 h at 30 °C. The validation of the yeast mutant libraries was done the next day with a fraction of the diploid cells (first DHFR-PCA experiment time point without PCA selection, reference condition S2) by amplifying ABP1 SH3 genomic sequence followed by Illumina sequencing as described in the section below. Following the selection, diploid cells OD was read using a TECAN Infinite F200 Pro, and dilutions to 0.1 OD in PCA selection media without agar in a 50 mL tube was done. Tubes were incubated at 30 °C for 72 h (second-time point of the DHFR-PCA experiment, first PCA selection). A fraction of the cells (5U OD) was collected for Illumina sequencing. The cells from the first PCA step were grown for a second PCA selection step using the same procedures. […]

Row | Molecule | ratio (log2 scale) | ratio (log2 scale) mean | frequency (reference condition) | frequency (reference condition) mean | frequency (test condition) | frequency (test condition) mean | frequency (log2 scale) (reference condition) mean | frequency (log2 scale) (test condition) mean
1 | B1 | -1.421 log2 scale | -1.432 log2 scale | 0.001041 | 0.0009397 | 5.39E-06 | 2.69E-06 |  | 
2 | B2 | 2.627 log2 scale | 2.654 log2 scale | 0.0007975 | 0.0006949 | 0.002419 | 0.002135 | -1.4398 log2 scale | -1.434 log2 scale
3 | B3 | 2.7124 log2 scale | 3.075 log2 scale | 0.0005961 | 0.0004649 | 0.001896 | 0.001734 | -1.441 log2 scale | -1.435 log2 scale
